Measured values as given in paper PMC4795942 (Protein Engineering, Design and Selection, 2016).
Substitutions are numbered along the chain they refer to. Names may count otherwise. One block for each binder: values may come before it.

Target: biotinylated MmQSOX1Trx with a carboxy-terminal AviTag (Mus musculus, UniProt Q8BND5, biotin (on the AviTag))
Experiment: flow cytometry on cells

- binding result: binds
B1: scFv492.1 template c with H49S S50M Y52Q (top binder of the CDR L2 library) displayed on yeast (scFv, V domains shown)
VH: QVQLKQSGPGLVAPSQSLSITCTVSGFSLTGYGVNWVRQSPGKGLEWLGMIWGDGRTEYKSALKSRLSITKDNSKSQVFLKMNSLQTDDTARYFCASDSKDPGSFAYWGQGTLVTVSA
VL: DVVMTQTHKFMSTSVGDRVSITCKASQDVSTAVAWYQQKSGQSPKLLISMASQRYTGVPDRFTGSGSGTDFTFTISSVQAEDLAVYYCQQHYAIPLTFGAGTKLELK

- binding result: binds
B2: scFv492.1 S93A Y99S Y100K G101D S102P D58E T31G H49S S50M Y52Q (mutant d) displayed on yeast (scFv, V domains shown)
VH: B1 VH
VL: B1 VL with T31G
